Patent US20120058906A1 (published 2012)

Legend:
[1] = target: T1, rHuman IGF-1 sR, (IGF-1 sR), CF (R&D Systems Cat#391-GR) (human, UniProt P08069 31-932); test: MSD ECL multi-spot plate; Fab 17.5 nM; blank spot 304
T1 construct: also called insulin-like growth factor-1 soluble receptor; IGF-R1

[2] = target: T2, rHuman Notch-1/Fc Chimera, CF (R&D Systems Cat#3647-TK) (human, UniProt P46531 19-526); test: as above
T2 construct: Fc part of the bought chimera not given

[3] = target: T3, rHuman HGF R/c-MET/Fc Chimera, CF (R&D Systems Cat#358-MT/CF) (human, UniProt P08581 25-932); test: as above
T3 construct: also called HGF R/Fc; hepatocyte growth factor receptor; Fc part of the bought chimera not given

[4] = target: T4, Recombinant Human DLL4 (R&D Systems Cat#1506-D4/CF) (human, UniProt Q9NR61 27-524); test: as above
T4 construct: also called delta-like protein 4

[5] = target: T5, rHuman ErbB2/Fc Chimera, CF (R&D Systems Cat#1129-ER) (human, UniProt P04626 23-652); test: MSD ECL multi-spot plate; Fab 280 nM; blank spot 1691
T5 construct: also called HER2/neu; human epidermal growth factor 2 receptor; Fc part of the bought chimera not given

[6] = target: T6, rHuman CD44/Fc Chimera, CF (R&D Systems Cat#3660-CD) (human, UniProt P16070 21-220); test: as above
T6 construct: Fc part of the bought chimera not given

[7] = target: T1, rHuman IGF-1 sR, (IGF-1 sR), CF (R&D …); test: as above
[8] = target: T2, rHuman Notch-1/Fc Chimera, CF (R&D …); test: as above
[9] = target: T3, rHuman HGF R/c-MET/Fc Chimera, CF (R&D …); test: as above
[10] = target: T4, Recombinant Human DLL4 (R&D Systems …); test: as above
[11] = target: T5, rHuman ErbB2/Fc Chimera, CF (R&D …); test: MSD ECL multi-spot plate; Fab 4.375 nM; blank spot 305
[12] = target: T6, rHuman CD44/Fc Chimera, CF (R&D Systems …); test: as above
[13] = target: T1, rHuman IGF-1 sR, (IGF-1 sR), CF (R&D …); test: as above
[14] = target: T2, rHuman Notch-1/Fc Chimera, CF (R&D …); test: as above
[15] = target: T3, rHuman HGF R/c-MET/Fc Chimera, CF (R&D …); test: as above
[16] = target: T4, Recombinant Human DLL4 (R&D Systems …); test: as above
[17] = target: T5, rHuman ErbB2/Fc Chimera, CF (R&D …); test: MSD ECL multi-spot plate; Fab 70 nM; blank spot 635
[18] = target: T6, rHuman CD44/Fc Chimera, CF (R&D Systems …); test: as above
[19] = target: T1, rHuman IGF-1 sR, (IGF-1 sR), CF (R&D …); test: as above
[20] = target: T2, rHuman Notch-1/Fc Chimera, CF (R&D …); test: as above
[21] = target: T3, rHuman HGF R/c-MET/Fc Chimera, CF (R&D …); test: as above
[22] = target: T4, Recombinant Human DLL4 (R&D Systems …); test: as above
[23] = target: T7, rHuman Erythropoietin R/Fc Chimera, CF (R&D Systems Cat#963-ER) (human, UniProt P19235 25-250); test: MSD ECL multi-spot, Fab 2.38 uM, blank 526
T7 construct: Bought Fc chimera; also called EPO R/Fc; EPOR; Fc part of the bought chimera not given
T7 sequence: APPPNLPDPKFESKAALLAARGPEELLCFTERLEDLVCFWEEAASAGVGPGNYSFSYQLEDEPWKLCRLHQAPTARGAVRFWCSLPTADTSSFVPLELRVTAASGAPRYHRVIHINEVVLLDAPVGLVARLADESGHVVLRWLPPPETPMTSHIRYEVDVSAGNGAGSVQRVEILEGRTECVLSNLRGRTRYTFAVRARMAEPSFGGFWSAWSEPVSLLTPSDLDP

[24] = target: T8, rHuman IGF-1 sR (insulin-like growth factor-1 soluble receptor), CF (R&D Systems Cat#391-GR) (human, UniProt P08069 31-932); test: MSD ECL multi-spot, Fab 2.38 uM, blank 526
T8 construct: Bought soluble receptor; also called IGF-R1

[25] = target: T9, rHuman CD44/Fc Chimera, CF (R&D Systems Cat#3660-CD) (human, UniProt P16070 21-220); test: MSD ECL multi-spot, Fab 2.38 uM, blank 526
T9 construct: Bought Fc chimera; Fc part of the bought chimera not given

[26] = target: T10, rHuman EGF R/Fc Chimera, CF (R&D Systems Cat#344-ER) (human, UniProt P00533 25-645); test: MSD ECL multi-spot, Fab 2.38 uM, blank 526
T10 construct: Bought Fc chimera; Fc part of the bought chimera not given

[27] = target: T11, rHuman ErbB2/Fc Chimera, CF (R&D Systems Cat#1129-ER) (human, UniProt P04626 23-652); test: MSD ECL multi-spot, Fab 2.38 uM, blank 526
T11 construct: Bought Fc chimera; also called HER2/neu; Fc part of the bought chimera not given

[28] = target: T12, Recombinant Human DLL4 (R&D Systems Cat#1506-D4/CF) (human, UniProt Q9NR61 27-524); test: MSD ECL multi-spot, Fab 2.38 uM, blank 526
T12 construct: Bought recombinant protein; also called rHuman DLL4; delta-like protein 4

[29] = target: T13, rHuman Notch-1/Fc Chimera, CF (R&D Systems Cat#3647-TK) (human, UniProt P46531 19-526); test: MSD ECL multi-spot, Fab 2.38 uM, blank 526
T13 construct: Bought Fc chimera; Fc part of the bought chimera not given
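Also: blank spot per well as comparator with Hit at signal to blank ratio of 4 or more.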

B1: Fab VH1-46_IGHD2-15*01_IGHJ2*01 & L12_IGKJ1*01 (Fab, V domains shown)
VH: QVQLVQSGAEVKKPGASVKVSCKASGYTFTSYYMHWVRQAPGQGLEWMGIINPSGGSTSYAQKFQGRVTMTRDTSTSTVYMELSSLRSEDTAVYYCAREGYCSGGSCYSYWYFDLWGRGTLVTVSS
VL: not shown
ECL signal [1]: 626 ECL signal
ECL signal [2]: 680 ECL signal
ECL signal [3]: 565 ECL signal
ECL signal [4]: 1220 ECL signal
ECL signal [5]: 3950 ECL signal
ECL signal [6]: 4070 ECL signal
ECL signal [7]: 3530 ECL signal
ECL signal [8]: 4380 ECL signal
ECL signal [9]: 3560 ECL signal
ECL signal [10]: 8110 ECL signal
ECL signal [11]: 384 ECL signal
ECL signal [12]: 424 ECL signal
ECL signal [13]: 369 ECL signal
ECL signal [14]: 480 ECL signal
ECL signal [15]: 193 ECL signal
ECL signal [16]: 558 ECL signal
ECL signal [17]: 1360 ECL signal
ECL signal [18]: 1370 ECL signal
ECL signal [19]: 1320 ECL signal
ECL signal [20]: 1490 ECL signal
ECL signal [21]: 1290 ECL signal
ECL signal [22]: 2750 ECL signal

B2: Fab VH5-51_IGHD5-18*01>3_IGHJ4*01 & V3-4_IGLJ1*01 (Fab, V domains shown)
VH: EVQLVQSGAEVKKPGESLKISCKGSGYSFTSYWIGWVRQMPGKGLEWMGIIYPGDSDTRYSPSFQGQVTISADKSISTAYLQWSSLKASDTAMYYCARRGYSYGYDYFDYWGQGTLVTVSS
VL: QTVVTQEPSFSVSPGGTVTLTCGLSSGSVSTSYYPSWYQQTPGQAPRTLIYSTNTRSSGVPDRFSGSILGNKAALTITGAQADDESDYYCVLYMGSGISYVFGTGTKVTVL
notes: Expressed in E. coli as Fab: heavy chain with CH1 plus Flag and His tags from Plasmid A, lambda light chain constant region from Plasmid E; also called Fab No. 2
ECL signal [23]: 834
ECL signal [24]: 691
ECL signal [25]: 666
ECL signal [26]: 681
ECL signal [27]: 594
ECL signal [28]: 12200
ECL signal [29]: 636
